Starred links: 1 amine or outer side, 2 acyl side, 3 side chain; linkers in the order of their positions; H or OH if unused. Non-standard residues stand in square brackets, D forms with d. Groups on a side chain read outwards from the residue. No end group written: not given here. *: point of attachment. C18 diacid = O=C(O)CCCCCCCCCCCCCCCCC(=O)*; γGlu = O=C(O)[C@H](CCC(=O)[*:2])N[*:1]; AEEA = NCCOCCOCC(=O)O; Aib = CC(C)(N)C(=O)O
B1: SEQ ID NO: 126 (peptide)
peptide: IVLSLD[dV]PIKLK([AEEA-AEEA-γGlu-C18 diacid])QILLEQAKQK[Aib]QRAQAEKNKRILERV-NH2
modifications: N-terminus assumed
SMILES: CC[C@H](C)[C@H](N)C(=O)N[C@H](C(=O)N[C@@H](CC(C)C)C(=O)N[C@@H](CO)C(=O)N[C@@H](CC(C)C)C(=O)N[C@@H](CC(=O)O)C(=O)N[C@@H](C(=O)N1CCC[C@H]1C(=O)N[C@H](C(=O)N[C@@H](CCCCN)C(=O)N[C@@H](CC(C)C)C(=O)N[C@@H](CCCCNC(=O)COCCOCCNC(=O)COCCOCCNC(=O)CC[C@H](NC(=O)CCCCCCCCCCCCCCCCC(=O)O)C(=O)O)C(=O)N[C@@H](CCC(N)=O)C(=O)N[C@H](C(=O)N[C@@H](CC(C)C)C(=O)N[C@@H](CC(C)C)C(=O)N[C@@H](CCC(=O)O)C(=O)N[C@@H](CCC(N)=O)C(=O)N[C@@H](C)C(=O)N[C@@H](CCCCN)C(=O)N[C@@H](CCC(N)=O)C(=O)N[C@@H](CCCCN)C(=O)NC(C)(C)C(=O)N[C@@H](CCC(N)=O)C(=O)N[C@@H](CCCNC(=N)N)C(=O)N[C@@H](C)C(=O)N[C@@H](CCC(N)=O)C(=O)N[C@@H](C)C(=O)N[C@@H](CCC(=O)O)C(=O)N[C@@H](CCCCN)C(=O)N[C@@H](CC(N)=O)C(=O)N[C@@H](CCCCN)C(=O)N[C@@H](CCCNC(=N)N)C(=O)N[C@H](C(=O)N[C@@H](CC(C)C)C(=O)N[C@@H](CCC(=O)O)C(=O)N[C@@H](CCCNC(=N)N)C(=O)N[C@H](C(N)=O)C(C)C)[C@@H](C)CC)[C@@H](C)CC)[C@@H](C)CC)C(C)C)C(C)C
B2: SEQ ID NO: 127 (peptide)
peptide: IVLSLD[dV]PIKLK([AEEA-AEEA-γGlu-C18 diacid])QILLEQAKQK[Aib]QREQAEKNKRILERV-NH2
modifications: N-terminus assumed
SMILES: CC[C@H](C)[C@H](N)C(=O)N[C@H](C(=O)N[C@@H](CC(C)C)C(=O)N[C@@H](CO)C(=O)N[C@@H](CC(C)C)C(=O)N[C@@H](CC(=O)O)C(=O)N[C@@H](C(=O)N1CCC[C@H]1C(=O)N[C@H](C(=O)N[C@@H](CCCCN)C(=O)N[C@@H](CC(C)C)C(=O)N[C@@H](CCCCNC(=O)COCCOCCNC(=O)COCCOCCNC(=O)CC[C@H](NC(=O)CCCCCCCCCCCCCCCCC(=O)O)C(=O)O)C(=O)N[C@@H](CCC(N)=O)C(=O)N[C@H](C(=O)N[C@@H](CC(C)C)C(=O)N[C@@H](CC(C)C)C(=O)N[C@@H](CCC(=O)O)C(=O)N[C@@H](CCC(N)=O)C(=O)N[C@@H](C)C(=O)N[C@@H](CCCCN)C(=O)N[C@@H](CCC(N)=O)C(=O)N[C@@H](CCCCN)C(=O)NC(C)(C)C(=O)N[C@@H](CCC(N)=O)C(=O)N[C@@H](CCCNC(=N)N)C(=O)N[C@@H](CCC(=O)O)C(=O)N[C@@H](CCC(N)=O)C(=O)N[C@@H](C)C(=O)N[C@@H](CCC(=O)O)C(=O)N[C@@H](CCCCN)C(=O)N[C@@H](CC(N)=O)C(=O)N[C@@H](CCCCN)C(=O)N[C@@H](CCCNC(=N)N)C(=O)N[C@H](C(=O)N[C@@H](CC(C)C)C(=O)N[C@@H](CCC(=O)O)C(=O)N[C@@H](CCCNC(=N)N)C(=O)N[C@H](C(N)=O)C(C)C)[C@@H](C)CC)[C@@H](C)CC)[C@@H](C)CC)C(C)C)C(C)C
B3: SEQ ID NO: 128 (peptide)
peptide: IVLSLD[dV]PIKLK([AEEA-AEEA-γGlu-C18 diacid])QILLKQARQK[Aib]QREQAEKNKRILERV-NH2
modifications: N-terminus assumed
SMILES: CC[C@H](C)[C@H](N)C(=O)N[C@H](C(=O)N[C@@H](CC(C)C)C(=O)N[C@@H](CO)C(=O)N[C@@H](CC(C)C)C(=O)N[C@@H](CC(=O)O)C(=O)N[C@@H](C(=O)N1CCC[C@H]1C(=O)N[C@H](C(=O)N[C@@H](CCCCN)C(=O)N[C@@H](CC(C)C)C(=O)N[C@@H](CCCCNC(=O)COCCOCCNC(=O)COCCOCCNC(=O)CC[C@H](NC(=O)CCCCCCCCCCCCCCCCC(=O)O)C(=O)O)C(=O)N[C@@H](CCC(N)=O)C(=O)N[C@H](C(=O)N[C@@H](CC(C)C)C(=O)N[C@@H](CC(C)C)C(=O)N[C@@H](CCCCN)C(=O)N[C@@H](CCC(N)=O)C(=O)N[C@@H](C)C(=O)N[C@@H](CCCNC(=N)N)C(=O)N[C@@H](CCC(N)=O)C(=O)N[C@@H](CCCCN)C(=O)NC(C)(C)C(=O)N[C@@H](CCC(N)=O)C(=O)N[C@@H](CCCNC(=N)N)C(=O)N[C@@H](CCC(=O)O)C(=O)N[C@@H](CCC(N)=O)C(=O)N[C@@H](C)C(=O)N[C@@H](CCC(=O)O)C(=O)N[C@@H](CCCCN)C(=O)N[C@@H](CC(N)=O)C(=O)N[C@@H](CCCCN)C(=O)N[C@@H](CCCNC(=N)N)C(=O)N[C@H](C(=O)N[C@@H](CC(C)C)C(=O)N[C@@H](CCC(=O)O)C(=O)N[C@@H](CCCNC(=N)N)C(=O)N[C@H](C(N)=O)C(C)C)[C@@H](C)CC)[C@@H](C)CC)[C@@H](C)CC)C(C)C)C(C)C
B4: SEQ ID NO: 13 (peptide)
peptide: FTLSLDVPTKIK([AEEA-AEEA-γGlu-C18 diacid])QILFKQQKQKKERQQAEKNKQLLEQI-NH2
modifications: N-terminus assumed
SMILES: CC[C@H](C)[C@H](NC(=O)[C@H](CCC(N)=O)NC(=O)[C@H](CCC(=O)O)NC(=O)[C@H](CC(C)C)NC(=O)[C@H](CC(C)C)NC(=O)[C@H](CCC(N)=O)NC(=O)[C@H](CCCCN)NC(=O)[C@H](CC(N)=O)NC(=O)[C@H](CCCCN)NC(=O)[C@H](CCC(=O)O)NC(=O)[C@H](C)NC(=O)[C@H](CCC(N)=O)NC(=O)[C@H](CCC(N)=O)NC(=O)[C@H](CCCNC(=N)N)NC(=O)[C@H](CCC(=O)O)NC(=O)[C@H](CCCCN)NC(=O)[C@H](CCCCN)NC(=O)[C@H](CCC(N)=O)NC(=O)[C@H](CCCCN)NC(=O)[C@H](CCC(N)=O)NC(=O)[C@H](CCC(N)=O)NC(=O)[C@H](CCCCN)NC(=O)[C@H](Cc1ccccc1)NC(=O)[C@H](CC(C)C)NC(=O)[C@@H](NC(=O)[C@H](CCC(N)=O)NC(=O)[C@H](CCCCNC(=O)COCCOCCNC(=O)COCCOCCNC(=O)CC[C@H](NC(=O)CCCCCCCCCCCCCCCCC(=O)O)C(=O)O)NC(=O)[C@@H](NC(=O)[C@H](CCCCN)NC(=O)[C@@H](NC(=O)[C@@H]1CCCN1C(=O)[C@@H](NC(=O)[C@H](CC(=O)O)NC(=O)[C@H](CC(C)C)NC(=O)[C@H](CO)NC(=O)[C@H](CC(C)C)NC(=O)[C@@H](NC(=O)[C@@H](N)Cc1ccccc1)[C@@H](C)O)C(C)C)[C@@H](C)O)[C@@H](C)CC)[C@@H](C)CC)C(N)=O
B5: SEQ ID NO: 129 (peptide)
peptide: IVLSLD[dV]PIKLK([AEEA-AEEA-γGlu-C18 diacid])QILLEQERQK[Aib]QREQAEKNKQILAQV-NH2
modifications: N-terminus assumed
SMILES: CC[C@H](C)[C@H](N)C(=O)N[C@H](C(=O)N[C@@H](CC(C)C)C(=O)N[C@@H](CO)C(=O)N[C@@H](CC(C)C)C(=O)N[C@@H](CC(=O)O)C(=O)N[C@@H](C(=O)N1CCC[C@H]1C(=O)N[C@H](C(=O)N[C@@H](CCCCN)C(=O)N[C@@H](CC(C)C)C(=O)N[C@@H](CCCCNC(=O)COCCOCCNC(=O)COCCOCCNC(=O)CC[C@H](NC(=O)CCCCCCCCCCCCCCCCC(=O)O)C(=O)O)C(=O)N[C@@H](CCC(N)=O)C(=O)N[C@H](C(=O)N[C@@H](CC(C)C)C(=O)N[C@@H](CC(C)C)C(=O)N[C@@H](CCC(=O)O)C(=O)N[C@@H](CCC(N)=O)C(=O)N[C@@H](CCC(=O)O)C(=O)N[C@@H](CCCNC(=N)N)C(=O)N[C@@H](CCC(N)=O)C(=O)N[C@@H](CCCCN)C(=O)NC(C)(C)C(=O)N[C@@H](CCC(N)=O)C(=O)N[C@@H](CCCNC(=N)N)C(=O)N[C@@H](CCC(=O)O)C(=O)N[C@@H](CCC(N)=O)C(=O)N[C@@H](C)C(=O)N[C@@H](CCC(=O)O)C(=O)N[C@@H](CCCCN)C(=O)N[C@@H](CC(N)=O)C(=O)N[C@@H](CCCCN)C(=O)N[C@@H](CCC(N)=O)C(=O)N[C@H](C(=O)N[C@@H](CC(C)C)C(=O)N[C@@H](C)C(=O)N[C@@H](CCC(N)=O)C(=O)N[C@H](C(N)=O)C(C)C)[C@@H](C)CC)[C@@H](C)CC)[C@@H](C)CC)C(C)C)C(C)C
B6: SEQ ID NO: 130 (peptide)
peptide: IVLSLD[dV]PIKLK([AEEA-AEEA-γGlu-C18 diacid])QILLKQERQK[Aib]QREQAEKNKQILAQV-NH2
modifications: N-terminus assumed
SMILES: CC[C@H](C)[C@H](N)C(=O)N[C@H](C(=O)N[C@@H](CC(C)C)C(=O)N[C@@H](CO)C(=O)N[C@@H](CC(C)C)C(=O)N[C@@H](CC(=O)O)C(=O)N[C@@H](C(=O)N1CCC[C@H]1C(=O)N[C@H](C(=O)N[C@@H](CCCCN)C(=O)N[C@@H](CC(C)C)C(=O)N[C@@H](CCCCNC(=O)COCCOCCNC(=O)COCCOCCNC(=O)CC[C@H](NC(=O)CCCCCCCCCCCCCCCCC(=O)O)C(=O)O)C(=O)N[C@@H](CCC(N)=O)C(=O)N[C@H](C(=O)N[C@@H](CC(C)C)C(=O)N[C@@H](CC(C)C)C(=O)N[C@@H](CCCCN)C(=O)N[C@@H](CCC(N)=O)C(=O)N[C@@H](CCC(=O)O)C(=O)N[C@@H](CCCNC(=N)N)C(=O)N[C@@H](CCC(N)=O)C(=O)N[C@@H](CCCCN)C(=O)NC(C)(C)C(=O)N[C@@H](CCC(N)=O)C(=O)N[C@@H](CCCNC(=N)N)C(=O)N[C@@H](CCC(=O)O)C(=O)N[C@@H](CCC(N)=O)C(=O)N[C@@H](C)C(=O)N[C@@H](CCC(=O)O)C(=O)N[C@@H](CCCCN)C(=O)N[C@@H](CC(N)=O)C(=O)N[C@@H](CCCCN)C(=O)N[C@@H](CCC(N)=O)C(=O)N[C@H](C(=O)N[C@@H](CC(C)C)C(=O)N[C@@H](C)C(=O)N[C@@H](CCC(N)=O)C(=O)N[C@H](C(N)=O)C(C)C)[C@@H](C)CC)[C@@H](C)CC)[C@@H](C)CC)C(C)C)C(C)C

The binders below were run against human corticotropin-releasing factor 2α (CRF2 α receptor) (human), Q13324 (assay: cell-based or functional assay).
Sequence of human corticotropin-releasing factor 2α (CRF2 α receptor) (human), Q13324 (Q13324 20-411): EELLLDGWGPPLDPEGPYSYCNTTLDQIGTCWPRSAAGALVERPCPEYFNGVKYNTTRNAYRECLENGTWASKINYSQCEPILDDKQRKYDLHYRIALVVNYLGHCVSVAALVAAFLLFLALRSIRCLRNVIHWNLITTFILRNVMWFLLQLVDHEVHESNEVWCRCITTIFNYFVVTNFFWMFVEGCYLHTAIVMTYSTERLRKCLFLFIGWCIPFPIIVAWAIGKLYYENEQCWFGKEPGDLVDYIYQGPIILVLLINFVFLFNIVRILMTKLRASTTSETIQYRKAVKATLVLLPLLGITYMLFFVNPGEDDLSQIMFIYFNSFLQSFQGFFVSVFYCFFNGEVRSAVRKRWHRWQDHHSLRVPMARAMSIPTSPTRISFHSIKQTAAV
Work on B1 yielded an EC50 [nM], 0% HSA of 0.22 nM and an EC50 [nM], 0.1% HSA of 5.59 nM. Work on B2 yielded an EC50 [nM], 0% HSA of 0.16 nM and an EC50 [nM], 0.1% HSA of 5.14 nM. B3 gave an EC50 [nM], 0% HSA of 0.64 nM and an EC50 [nM], 0.1% HSA of 20.1 nM. Work on B4 yielded an EC50 [nM], 0% HSA of 0.98 nM and an EC50 [nM], 0.1% HSA of 64.1 nM. In the case of B5, the EC50 [nM], 0% HSA is reported as 0.15 nM and the EC50 [nM], 0.1% HSA is reported as 3.02 nM. For B6, the EC50 [nM], 0% HSA was 0.05 nM and the EC50 [nM], 0.1% HSA was 2.11 nM.
